# In publication PMC8754651, “Three human RNA polymerases interact with TFIIH via a common RPB6 subunit” (Nucleic Acids Research, 2021):
# B1: human RPB6 (residues 1–24), NTT peptide (peptide, UniProt P61218 1-24, looked up)
# peptide: MSDNEDNFDGDDFDDVEEDEGLDD
# notes: RPB6, human, N-terminal tail (NTT), residues 1-24; also called NTT peptide derived from human RPB6
# B2: human RPB6 (residues 1–24) F8A (peptide, UniProt P61218 1-24, looked up)
# peptide: MSDNEDNADGDDFDDVEEDEGLDD
# notes: RPB6, human, N-terminal tail, residues 1-24, with F8A
# B3: human RPB6 (residues 1–24) F13A-V16A (peptide, UniProt P61218 1-24, looked up)
# peptide: MSDNEDNFDGDDADDAEEDEGLDD
# notes: RPB6, human, N-terminal tail, residues 1-24, with F13A and V16A; also called F13A-V16A double mutation
# B4: human RPB6 (residues 1–24) F13A (peptide, UniProt P61218 1-24, looked up)
# peptide: MSDNEDNFDGDDADDVEEDEGLDD
# notes: RPB6, human, N-terminal tail, residues 1-24, with F13A
# B5: human RPB6 (residues 1–24) V16A (peptide, UniProt P61218 1-24, looked up)
# peptide: MSDNEDNFDGDDFDDAEEDEGLDD
# notes: RPB6, human, N-terminal tail, residues 1-24, with V16A
# B6: human RPB6 (residues 1–24) S2A (peptide, UniProt P61218 1-24, looked up)
# peptide: MADNEDNFDGDDFDDVEEDEGLDD
# notes: RPB6, human, N-terminal tail, residues 1-24, with Ser2 substituted to alanine; also called Ser2 alanine substitution
# B7: human TFIIH p62 PH domain (PH-D) (residues 1–108) (domain or fragment)
# chain: MATSSEEVLLIVKKVRQKKQDGALYLMAERIAWAPEGKDRFTISHMYADIKCQKISPEGKAKIQLQLVLHAGDTTNFHFSNESTAVKERDAVKDLLQQLLPKFKRKAN
# notes: p62 subunit of the general transcription/repair factor TFIIH, human, N-terminal pleckstrin homology (PH) domain, residues 1-108; Unlabeled, 15N-labeled or 13C/15N-labeled according to the experiment; Expressed from pET15b; a few vector residues may remain after thrombin cleavage (surmise); source: E. coli BL21 (DE3) Gold, purified (Ni-NTA, thrombin digestion, Superdex75)
# Biological target: B7
# Assay: ITC; 100∼300 μM RPB6/Rpb6 peptide in the syringe titrated into 10–30 μM p62 PH-D in the cell; 20 mM potassium phosphate (pH 6.8) with or without 25 mM NaCl, 20°C; VP-ITC
# Conditions: both partners purified
row,binding result,Binder
1,binds,B1
2,binds,B2
3,binds,B3
4,binds,B4
5,binds,B5
6,binds,B6

# Biological target: human RPB6 (residues 1–127), full-length (human, UniProt P61218 1-127)
# Assay: NMR structure; complex at 0.38 mM, 13C/15N-labeled RPB6 with unlabeled p62 PH-D at 1.0:2.0 (and 13C/15N-labeled p62 PH-D with unlabeled RPB6); 20 mM potassium phosphate (pH 6.8), 25 mM NaCl, 5 mM deuterated DTT, 25°C; intermolecular NOEs
# Conditions: both partners purified
row,Binder,binding result
1,B7,binds
